From the nanobody polyreactivity screen of Harvey et al. (2022)

Experiment: yeast display, Sf9 membrane polyspecificity reagent, FACS + sequencing; frameworks hold sequencing errors
Procedure, shortened: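 Polyreactivity labels are assigned by the sorting gate from which each nanobody was recovered. The gates were low and high (top ~1%), set on anti-HA fluorescence for expression and streptavidin fluorescence for reagent binding. Before sorting, galactose-induced (36–48 hours) yeast display cells were stained for 1 hour at 4 °C with 10% biotinylated, detergent-solubilized Sf9 membrane reagent.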

Sequence | polyreactivity (PSR sort gate)
QVQLVESGGGLVQAGGSLRLSCAASGFIFSRYAMGWYRQAAGKERELVAAISYSGSSTYYADSVKGRFTISRDNAKNTVFLQMNSLKPEDTGVYYCNAVTQITGSSDGDYWGQGTQVTVSS | high polyreactivity
QVQLVESGGGLVQAGGSLRLSCAASGFIFSRYAMGWYRQAPGKERELVAAISIGGSTYYADSVKGRFTISRDNAKNTVYLQMNSLKPEDTAVYYCAVDYRHSSSWNAGPWEMYYWGQGTQVTVSS | low polyreactivity
QVQLVESGGGLVQAGGSLRLSCAASGFIFSRYFMGWYRQAPGKERELVAAISWNVGSTYYADSVKGRFTISRDNAKNTVYLQMNSLKPEDTAVYYCAARDRRSVTMDYWGHGTQVTVSS | high polyreactivity
QVQLVESGGGLVQAGGSLRLSCAASGFIFSSHAMGWYRQAPGKERELVAAISRSGGRTYYADSVKGRFTISRDNAKNTVYLQMNSLKPEDTAVYYCAAKRWWQYYWGQGTQVTVSS | high polyreactivity
QVQLVESGGGLVQAGGSLRLSCAASGFIFSSNAMGWYRQAPGKEREFVAAISFRGGTTYYADSVKRRFTISRDNAKNTVYLQLNSLKPEDTAVYYCNAVRWRSGRWWWYDYWGQGTQVTVSS | low polyreactivity
QVQLVESGGGLVQAGGSLRLSCAASGFIFSSNAMGWYRQAPGKERELVATISSDGSTNYADSVKGRFTISRDNAKNTVYLQMNSLKPEDTAVYYCAADLSLTIGTWTVLDTKYDYWGQGTQVTVSS | low polyreactivity
QVQLVESGGGLVQAGGSLRLSCAASGFIFSSNDMGWYRQAPGKERELVAAIDYSGGSTYYADSVKGRFTISRDNAKNTVYLQMNSLKPEDTAVYYCAATVYNPTDYYSPYYYWGQGTQVTGSS | low polyreactivity
QVQLVESGGGLVQAGGSLRLSCAASGFIFSSNTMGWYRQAPGKERELVADITSGARTNYADSVKGRFTISRDNAKNTVYLQMNSLKPEDTAVYYCAAYPHYIYFTWYPRYTYGYWGQGTQVTVSS | low polyreactivity
QVQLVESGGGLVQAGGSLRLSCAASGFIFSSYAMGWYRQAPGKEREFVASISASGGTTYYADSVKGRFTISRDNAKNTVYLQMNSLKPEDTAVYYCAAPWLDAEDYWGQGTQVTVSS | high polyreactivity
QVQLVESGGGLVQAGGSLRLSCAASGFIFSSYAMGWYRQAPGKEREFVAVISTGGGSTYYADSVKGRFTISRDNAKITVYLQMNSLKPEDTAVYYCAAKLYDSGGRYWYDYWGQGTQVTVSS | high polyreactivity
QVQLVESGGGLVQAGGSLRLSCAASGFIFSSYAMGWYRQAPGKERELVAAISRSGGRTYYADSVKGRFTISRDNAKNTVYLQMNSLKPEDTAVYYCAAKWLGTAGDDYWGQGTQVTVSS | high polyreactivity
QVQLVESGGGLVQAGGSLRLSCAASGFIFSTYAMGWYRQAPGKERELVSAISCSTGSTYYADSVKGRFTISRDNAKNTVYLQMNSLKPEDTAVYYCNALRRPSTEGRDYWGQGTQVTVSS | high polyreactivity
QVQLVESGGGLVQAGGSLRLSCAASGFIFSVNAMGWYRQAPGKERELVAAISTNTGRTYYADSVKGRFTISRDNAKNTVYLQMNSLKPEDTAVYYCAADGPTYWAVRGDYWGQGTQVTVSS | low polyreactivity
QVQLVESGGGLVQAGGSLRLSCAASGFIFSVNTMGSYRQAPGKERELVAAISGSGGSTYYADSVKGRFTISRDNAKNTVYLQMNSLKPEDTAVYYCAARYTVTYDYWGQGTQVTVSS | high polyreactivity
QVQLVESGGGLVQAGGSLRLSCAASGFIFSVYAMGWYRQAPGKEREFVAAIRWSGGSTYYADSVKGRFTISRDNAKNTVYLQMNSLKPEDTAVYYCAARARDLYGYWGQGTQVTVSS | high polyreactivity
QVQLVESGGGLVQAGGSLRLSCAASGFIFSVYAMGWYRQAPGKERELVAAITESGGSTYYADSVKGRFTISRDNAKNSVYLQMNSLKPEDTAVYYCAAAIRPYEYEYWGQGTQVTVSS | low polyreactivity
QVQLVESGGGLVQAGGSLRLSCAASGFIFSVYAMGWYRQAPGTEREFVAAIRWSGGSTYYADSVKGRFTISRDNAKNTVYLQMNSLKPEDTAVYYCAARARDHYGYWGQGTQVTVSS | high polyreactivity
QVQLVESGGGLVQAGGSLRLSCAASGFIFSVYTMGWYRQAPGKERELVASITWSGGDTYYADSVKGRFTISRDNAKNTVYLQMNSLKPEDTAVYYCNVDAGFHDSYHAWNLRYDYWGQGTQVTVSS | low polyreactivity
QVQLVESGGGLVQAGGSLRLSCAASGFIFSWNAMGWYRQAPGKERELVAVITWSGSRTNYADSVKGRFTISRDNAKNTVYLQMNSLKPEDTAVYYCATKGPVYTSSRPVSGGAYNYWGQGTQVTVSS | low polyreactivity
QVQLVESGGGLVQAGGSLRLSCAASGFIFSYYALGWYRQATGKERELVAAITYSGVRTYYADSVKGRFTISRDNAKNTVYLQMNSLKPVDTAVYYCNTKHRTKPTRPDDYWGQGTQVTVSS | high polyreactivity
QVQLVESGGGLVQAGGSLRLSCAASGFIFSYYAMGWYRQAPGKERELVAAISSGGSTYYADSVKGRFTISRDNAKNTVYLQMNSLKPEDTAVYYCAAAIWYIKLYFVRRTEHGYWGQGTQVTVSS | low polyreactivity
QVQLVESGGGLVQAGGSLRLSCAASGFIFSYYAMGWYRQAPGKERELVATITSGGSTNYADSVKGRFTISRDNAKNTVYLQMNSLKPEDTAVYYCNALPGVSHTQYDRVGYWGQGTQVTLSS | high polyreactivity

Sequence | polyreactivity (PSR sort gate)
QVQLVESGGGLVQAGGSLRLSCAASGFIFSYYAMGWYRQAPGTERELVAVITFSVGSPYYADSVKGRFTISRDNAQNTVYLLMNSLKPEDTAVYYCAARSYACAKRAYYYWGQGTQVTVSS | high polyreactivity
QVQLVESGGGLVQAGGSLRLSCAASGFIFSYYTMGWYRQEPGTERELVADISWSGGSSYYADSVKGRFTISRDNAKNTVYLQMNSLKPEDTAVYYCNAEGWTAFLDQYDYWGQGTQVTVSS | high polyreactivity
QVQLVESGGGLVQAGGSLRLSCAASGFIFSYYVMGWYRQAPGKERELVAAINESGGRTYYADSVKGRFTISRDNAKNTVYLQMNSLKPEDTAVYYCAASVLNKIQGYRDYYWGQGTQVTVSS | low polyreactivity
QVQLVESGGGLVQAGGSLRLSCAASGFIFSYYVMGWYRQAPGKERELVAAINESGGRTYYADSVKGRFTISRDNAKNTVYLQMNSLKPEDTAVYYCATIPGYVYYWQYKYDYWGQGTQVTVSS | low polyreactivity
QVQLVESGGGLVQAGGSLRLSCAASGFIFTDNVMGWYRQAPGKERELVAAISRGGGSTYYADSVKGRFTISRDNAKNTDYLQMNSLKPEDTAVYYCAAPTARSRSERDYWGQGTQVTVSS | high polyreactivity
QVQLVESGGGLVQAGGSLRLSCAASGFIFTDYTMGWYRQAPGKERELVAAIDSSGGGTHYADSVKGRFTISRDNAKNTVYLQMNSLKPEDTAVYYCAAADYLIQFWYQYDYWGQGTQVTVSS | low polyreactivity
QVQLVESGGGLVQAGGSLRLSCAASGFIFTIYAMGWYRQAPGKERELVAAITWNGGRTYYADSVKGRFTISRDNAKNTVYLQMNSLKPEDTAVYYCAARYGRAYDYWGQGTQVTVSS | high polyreactivity
QVQLVESGGGLVQAGGSLRLSCAASGFIFTLYAMGWYRKAPGKEREFVAAISWSDGSTTYADSVKGRFTISRDNAKNTVYLQMNSLKPEDTAVYYCNTSYIIWYDSWGQGTQVTVSS | low polyreactivity
QVQLVESGGGLVQAGGSLRLSCAASGFIFTRYAMGWYRQAPGKERELVAAIRWRGSSTYYADSVKGRFTISRDNAKNTVYLQMNSLKPEDTAVYYCAAQPSRSTYLAPSRDHWGQGTQVTVSS | low polyreactivity
QVQLVESGGGLVQAGGSLRLSCAASGFIFTRYAMGWYRQAPGKERELVAAITRSGGRTYYADSVKGRFTISRDNAKNTVYLQMNSLKPEDTAVYYCAAEGSVGLYGLIMHYWGLGTQVTVSS | high polyreactivity
QVQLVESGGGLVQAGGSLRLSCAASGFIFTRYAMGWYRQAPGKERELVAGINRSGSRTYYADSVKGRFKISRDNAKNTVYLQMNSLKPEDTAVYYCATDTWYLYSTLDYWGQGTQVTVSS | high polyreactivity
QVQLVESGGGLVQAGGSLRLSCAASGFIFTTYAMGWYRQAPGKERELVAAISTSGGRTYYADSVKGRFTISRDNAKNTVYLQMNSLKPEDTAVYYCNTYSYYSYDWGQGTQVTVSS | high polyreactivity
QVQLVESGGGLVQAGGSLRLSCAASGFIFTWYAMGWYRQAPGKEREVVAGISRSGGRTYYADSVKGRFTISRDNAKNTVYLQMNSLKPEDTAVYYCNAVLVGYRPYREFDHWGQGTQVTVSS | high polyreactivity
QVQLVESGGGLVQAGGSLRLSCAASGFIFTYNAMGWYRQAPGKERELVAAMNSGGITYYADSVKGRFTISRDNAKNPVYLQMNSLKPEDTAVYYCAKRRQIGWITYDYCGQGTQVTVSS | low polyreactivity
QVQLVESGGGLVQAGGSLRLSCAASGFIFTYYAMGWYRQAPGKERELVAAISSRGTSTYYADSVKGRFTISRDNAKNTVYLQMNSLKPEDTAVYYCAAGKPKIPDDDYWGQGTQVTVSS | high polyreactivity
QVQLVESGGGLVQAGGSLRLSCAASGFIFTYYAMGWYRQAPGKERELVASITISGGSTYYADSVKGRFTISRDNAKNTVYLQMNSLKPEDTAVYYCNVVPWYYGYDYWGQGTQVTVSS | high polyreactivity
QVQLVESGGGLVQAGGSLRLSCAASGFIFTYYAMGWYRQAPGKERELVAVISWSGGTTYYADSVKGRFTISRDNAKNTVYLQMNSLKPEDTAVYYCAAGKVSFWLVFEYDYWGQGTQVTVSS | low polyreactivity
QVQLVESGGGLVQAGGSLRLSCAASGFIFTYYDMGWYRQAPGKERELVASISWDGGRTYYADSVKGRFTISRDNAKNTVYLQMNSLKPEDTAVYYCAKRLGGSPIQARGDYWGQGTQVTVSS | low polyreactivity
QVQLVESGGGLVQAGGSLRLSCAASGFIFTYYGMGWYRQAPGKERELVAAITWSGASTYYADSVKGRFTISRDNAKNTVYLQMNSLKPEDTAVYYCNAGWDSGIVQSDETVYKYDYWGQGTQVTVSS | low polyreactivity
QVQLVESGGGLVQAGGSLRLSCAASGFIFVAYAMGWYRQAPGKERELVATIDSSGGTTYYADSVKGRFTISRDNAKNTVYLQMNSLKPEDTAVYYCNAPIYPYREFGRDYWGQGTQVTVSS | low polyreactivity
QVQLVESGGGLVQAGGSLRLSCAASGFIFVGNAMGWYRQAPGKERELVAAISSGTSTNYADSVKGRFTISRDNAKNTVYLQMNSLKPEDTAVYYCNAEVPATNEYTKRMDYWGQGTQVTVSS | low polyreactivity
